# Measurements as given in patent US5210024A, “Isolation of strains of Saccharomyces cerevisiae having altered α-acetyltransferase activity” (priority 1991, dated 1993).
# Ends that are not written are not given here.
# Assays:
# [1] = biological target: T1, M-N^α -AT (methionine N^α -acetyltransferase) (Saccharomyces cerevisiae, UniProt Q06504); assay: N^α-acetylation of synthetic peptides by methionine N^α-acetyltransferase; assay type: biochemical; design: concentration or dose not given beside the values
# T1 construct: endogenous in cells; host or cells: Saccharomyces cerevisiae aaa1 (AAA1-null) mutant
# T1 sequence (Q06504 1-195): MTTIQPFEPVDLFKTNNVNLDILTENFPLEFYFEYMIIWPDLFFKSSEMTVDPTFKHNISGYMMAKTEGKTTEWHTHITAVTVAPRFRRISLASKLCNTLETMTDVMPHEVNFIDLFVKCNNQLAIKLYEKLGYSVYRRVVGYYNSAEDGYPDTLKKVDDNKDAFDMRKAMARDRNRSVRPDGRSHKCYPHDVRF
# T1 sequence (Q12387 2-796 partner limits assumed): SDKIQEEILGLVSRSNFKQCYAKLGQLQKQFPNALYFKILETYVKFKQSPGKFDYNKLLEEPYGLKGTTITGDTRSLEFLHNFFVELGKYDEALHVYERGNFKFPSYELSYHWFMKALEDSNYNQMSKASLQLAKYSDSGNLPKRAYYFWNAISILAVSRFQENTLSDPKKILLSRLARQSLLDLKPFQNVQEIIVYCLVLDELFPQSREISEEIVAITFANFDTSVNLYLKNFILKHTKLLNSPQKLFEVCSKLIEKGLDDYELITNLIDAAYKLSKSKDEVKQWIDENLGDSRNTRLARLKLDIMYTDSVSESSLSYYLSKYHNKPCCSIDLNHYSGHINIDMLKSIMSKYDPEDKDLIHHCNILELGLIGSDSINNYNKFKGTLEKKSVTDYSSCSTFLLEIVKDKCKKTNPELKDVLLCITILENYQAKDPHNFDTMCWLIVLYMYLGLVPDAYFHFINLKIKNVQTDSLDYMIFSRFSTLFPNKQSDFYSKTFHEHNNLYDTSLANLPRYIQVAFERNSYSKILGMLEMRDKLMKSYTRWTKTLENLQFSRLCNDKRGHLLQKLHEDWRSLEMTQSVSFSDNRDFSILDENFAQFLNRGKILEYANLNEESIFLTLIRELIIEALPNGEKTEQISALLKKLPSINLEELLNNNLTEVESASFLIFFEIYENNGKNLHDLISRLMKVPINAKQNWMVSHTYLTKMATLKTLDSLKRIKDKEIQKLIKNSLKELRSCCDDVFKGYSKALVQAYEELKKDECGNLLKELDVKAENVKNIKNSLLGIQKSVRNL
# Procedure: (§1) Aliquots of the lysate were added to 1.5 ml Eppendorf tubes containing a reaction mixture of 50 mM HEPES, pH 7.4, 150 mM KCl, 1 mM DTT, 25 μM[^3 H]acetyl coenzyme A (0.5 μCi) and 50 μM ACTH (1-24) with an adjusted final volume of 100 μl. The assay mixture was incubated at 30 C for 30 min. The reaction was stopped by adding 0.5 M acetic acid and chilled in an ice bath. […] The radioactivity in the control represented acetylation of endogenous compounds is subtracted from each sample determination. One unit of activity is defined as 1 pmol of acetyl residues incorporated into ACTH (1-24) under standard assay conditions.
# (§2) This second N^α -acetyltransferase is a methionine N^α -acetyltransferase activity, and is designated as "M-N^α -AT." This second N^α -acetyltransferase is the subject of U.S. patent application of John A. Smith and Fang-Jen S. Lee, filed Oct. […] In order to compare the relative specificity and activity of the AAA1 N^α -acetyltransferase ("N^α -AT") of the present invention with the methionine N^α -acetyltransferase activity (M-N^α -AT) of U.S. patent application of John A. Smith and Fang-Jen S. Lee, filed Oct. […] These peptides were assessed for their ability to serve as substrates for the two enzymes. In Table 2, the effect of the amino terminal amino acid on activity is investigated; in Table 3, the effect of the penultimate amino terminal amino acid on activity is investigated.
# [2] = biological target: T2, N^α -AT (AAA1 N^α -acetyltransferase) (Saccharomyces cerevisiae, UniProt P07347+P12945); assay: N^α-acetylation of synthetic peptides by AAA1 N^α-acetyltransferase ([3H]acetyl coenzyme A incorporation); assay type: biochemical; design: concentration or dose not given beside the values
# T2 construct: isolates N^α -acetyltransferase by treating yeast cells with lyticase; endogenous in cells; host or cells: Saccharomyces cerevisiae cells (native enzyme)
# T2 sequence (P12945 2-854): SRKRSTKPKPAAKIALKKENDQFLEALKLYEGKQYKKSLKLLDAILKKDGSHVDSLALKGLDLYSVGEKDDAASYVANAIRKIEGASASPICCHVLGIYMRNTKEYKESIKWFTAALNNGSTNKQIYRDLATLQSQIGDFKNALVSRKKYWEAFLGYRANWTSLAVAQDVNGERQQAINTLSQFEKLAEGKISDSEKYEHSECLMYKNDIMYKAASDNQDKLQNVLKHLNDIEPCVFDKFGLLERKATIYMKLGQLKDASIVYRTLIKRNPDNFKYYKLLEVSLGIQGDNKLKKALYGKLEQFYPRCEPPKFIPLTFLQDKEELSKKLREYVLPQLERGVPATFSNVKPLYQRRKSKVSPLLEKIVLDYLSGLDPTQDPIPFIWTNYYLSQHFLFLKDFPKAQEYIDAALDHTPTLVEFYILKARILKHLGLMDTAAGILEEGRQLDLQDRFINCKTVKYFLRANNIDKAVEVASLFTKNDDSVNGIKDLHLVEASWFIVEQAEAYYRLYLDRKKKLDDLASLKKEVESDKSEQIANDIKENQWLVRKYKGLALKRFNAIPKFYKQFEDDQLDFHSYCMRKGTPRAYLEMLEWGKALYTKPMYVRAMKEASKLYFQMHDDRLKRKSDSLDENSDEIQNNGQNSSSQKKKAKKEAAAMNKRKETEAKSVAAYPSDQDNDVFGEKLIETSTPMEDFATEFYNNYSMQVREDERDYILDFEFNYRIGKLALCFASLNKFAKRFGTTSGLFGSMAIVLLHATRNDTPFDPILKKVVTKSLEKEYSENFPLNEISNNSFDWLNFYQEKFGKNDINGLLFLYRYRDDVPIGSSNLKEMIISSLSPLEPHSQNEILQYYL
# T2 sequence (P07347 1-238): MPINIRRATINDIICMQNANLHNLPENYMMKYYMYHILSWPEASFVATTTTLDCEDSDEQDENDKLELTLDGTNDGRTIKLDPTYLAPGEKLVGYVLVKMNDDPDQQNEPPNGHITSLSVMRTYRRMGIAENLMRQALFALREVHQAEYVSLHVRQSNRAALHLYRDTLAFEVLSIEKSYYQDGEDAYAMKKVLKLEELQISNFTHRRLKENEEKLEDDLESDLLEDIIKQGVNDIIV
# Procedure: as §1, §2
# [3] = Table 3: relative activity for N^α-acetylation of synthetic peptide substrate, influence of the penultimate amino terminal residue
# [4] = Table 2: relative activity for N^α-acetylation of synthetic peptide substrate, influence of the amino terminal residue
Substance,"Activity (%) (mean activity ± S.D.) M-N^α -AT [1, 3]","Activity (%) (mean activity ± S.D.) N^α -AT [2, 3]","Activity (%) (mean activity ± S.D.) M-N^α -AT [1, 4]","Activity (%) (mean activity ± S.D.) N^α -AT [2, 4]"
STPETQKGVIFYESHGKLEYKDIP (STPETQKGVIFYESHGKLEYKDIP),0,144 ± 8,–,–
SEPETQKGVIFYESHGKLEYKDIP (SEPETQKGVIFYESHGKLEYKDIP),0,121 ± 6,–,–
WIPETQKGVIFYESHGKLEYKDIP (WIPETQKGVIFYESHGKLEYKDIP),–,–,0,0
SCPETQKGVIFYESHGKLEYKDIP (SCPETQKGVIFYESHGKLEYKDIP),0,136 ± 7,–,–
CIPETQKGVIFYESHGKLEYKDIP (CIPETQKGVIFYESHGKLEYKDIP),–,–,0,0
VIPETQKGVIFYESHGKLEYKDIP (VIPETQKGVIFYESHGKLEYKDIP),–,–,0,69 ± 4
SPPETQKGVIFYESHGKLEYKDIP (SPPETQKGVIFYESHGKLEYKDIP),0,0,–,–
SAPETQKGVIFYESHGKLEYKDIP (SAPETQKGVIFYESHGKLEYKDIP),0,168 ± 8,–,–
SDPETQKGVIFYESHGKLEYKDIP (SDPETQKGVIFYESHGKLEYKDIP),0,171 ± 9,–,–
QIPETQKGVIFYESHGKLEYKDIP (QIPETQKGVIFYESHGKLEYKDIP),–,–,0,0
SMPETQKGVIFYESHGKLEYKDIP (SMPETQKGVIFYESHGKLEYKDIP),0,140 ± 7,–,–
SRPETQKGVIFYESHGKLEYKDIP (SRPETQKGVIFYESHGKLEYKDIP),0,102 ± 5,–,–
RIPETQKGVIFYESHGKLEYKDIP (RIPETQKGVIFYESHGKLEYKDIP),–,–,0,0
SKPETQKGVIFYESHGKLEYKDIP (SKPETQKGVIFYESHGKLEYKDIP),0,151 ± 6,–,–
GIPETQKGVIFYESHGKLEYKDIP (GIPETQKGVIFYESHGKLEYKDIP),–,–,0,23 ± 3
LIPETQKGVIFYESHGKLEYKDIP (LIPETQKGVIFYESHGKLEYKDIP),–,–,0,0
EIPETQKGVIFYESHGKLEYKDIP (EIPETQKGVIFYESHGKLEYKDIP),–,–,0,0
AIPETQKGVIFYESHGKLEYKDIP (AIPETQKGVIFYESHGKLEYKDIP),–,–,0,0
SLPETQKGVIFYESHGKLEYKDIP (SLPETQKGVIFYESHGKLEYKDIP),0,126 ± 5,–,–
SWPETQKGVIFYESHGKLEYKDIP (SWPETQKGVIFYESHGKLEYKDIP),0,91 ± 5,–,–
SYPETQKGVIFYESHGKLEYKDIP (SYPETQKGVIFYESHGKLEYKDIP),0,169 ± 8,–,–
PIPETQKGVIFYESHGKLEYKDIP (PIPETQKGVIFYESHGKLEYKDIP),–,–,0,70 ± 4
IIPETQKGVIFYESHGKLEYKDIP (IIPETQKGVIFYESHGKLEYKDIP),–,–,0,0
DIPETQKGVIFYESHGKLEYKDIP (DIPETQKGVIFYESHGKLEYKDIP),–,–,0,0
YIPETQKGVIFYESHGKLEYKDIP (YIPETQKGVIFYESHGKLEYKDIP),–,–,0,20 ± 2
HIPETQKGVIFYESHGKLEYKDIP (HIPETQKGVIFYESHGKLEYKDIP; also: tritium label),–,–,0,19 ± 2
NIPETQKGVIFYESHGKLEYKDIP (NIPETQKGVIFYESHGKLEYKDIP),–,–,0,0
FIPETQKGVIFYESHGKLEYKDIP (FIPETQKGVIFYESHGKLEYKDIP),–,–,0,9 ± 2
